Reference: the supplement of paper PMC9233669
Fewer inactive variants are shown than the library holds.

Experiments:
biotinyl-Phe-oxazolone = assay: self-aminoacylation, catalytic enhancement (BFO) (fold over background); higher = more active; k-Seq, kA / k0A0; sequences stand for … in GGGAAUGGAUCCACAUCUACGAAUUC…UUCACUGCAGACUUGACGAAGCUG
Procedure, shortened: (§1)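 Mutagenized RNA pools (0.43 μM; 21-nt variable region) were treated with 2–1250 μM of each biotinyl-aminoacyl-oxazolone. Conditions were 50 μL HEPES/NaCl/KCl/MgCl2/CaCl2 buffer, 5% acetonitrile, pH 6.9–7.0, room temperature, 90 minutes. Catalytic enhancement, the median kA relative to the uncatalyzed rate, was derived from streptavidin capture, qPCR and Illumina sequencing.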

biotinyl-Ile-oxazolone = assay: self-aminoacylation, catalytic enhancement (BIO) (fold over background); higher = more active; k-Seq, kA / k0A0; sequences stand for … in GGGAAUGGAUCCACAUCUACGAAUUC…UUCACUGCAGACUUGACGAAGCUG
Procedure, shortened: as §1

biotinyl-Trp-oxazolone = assay: self-aminoacylation, catalytic enhancement (BWO) (fold over background); higher = more active; k-Seq, kA / k0A0; sequences stand for … in GGGAAUGGAUCCACAUCUACGAAUUC…UUCACUGCAGACUUGACGAAGCUG
Procedure, shortened: as §1

biotinyl-Met-oxazolone = assay: self-aminoacylation, catalytic enhancement (BMO) (fold over background); higher = more active; k-Seq, kA / k0A0; sequences stand for … in GGGAAUGGAUCCACAUCUACGAAUUC…UUCACUGCAGACUUGACGAAGCUG
Procedure, shortened: as §1

biotinyl-Val-oxazolone = assay: self-aminoacylation, catalytic enhancement (BVO) (fold over background); higher = more active; k-Seq, kA / k0A0; sequences stand for … in GGGAAUGGAUCCACAUCUACGAAUUC…UUCACUGCAGACUUGACGAAGCUG
Procedure, shortened: as §1

biotinyl-Leu-oxazolone = assay: self-aminoacylation, catalytic enhancement (BLO) (fold over background); higher = more active; k-Seq, kA / k0A0; sequences stand for … in GGGAAUGGAUCCACAUCUACGAAUUC…UUCACUGCAGACUUGACGAAGCUG
Procedure, shortened: as §1

Row | Sequence | self-aminoacylation (biotinyl-Phe-oxazolone) | self-aminoacylation (biotinyl-Ile-oxazolone) | self-aminoacylation (biotinyl-Trp-oxazolone) | self-aminoacylation (biotinyl-Met-oxazolone) | self-aminoacylation (biotinyl-Val-oxazolone) | self-aminoacylation (biotinyl-Leu-oxazolone)
1 | AUUCAUCUAGGUCAUCGGUUG [Fam2.2 aminoacylation ribozyme variant] | 1.07 | 1.15 | 1.13 | 1.25 | 1.24 | 1.3
2 | AUUCAUCUAGGUGAUCGGGUG [Fam2.2 aminoacylation ribozyme variant] | 20.3 | 2.4 | 3.76 | 2.85 | 2.54 | 3.57
3 | AUUCAUCUAGUUCAUCGGGUG [Fam2.2 aminoacylation ribozyme variant] | 12.6 | 2.13 | 3.1 | 2.83 | 2.21 | 3.27
4 | AUUCCACUAGGUCAUCGGGUG [Fam2.2 aminoacylation ribozyme variant] | 77.2 | 6.56 | 8.98 | 9.49 | 6.23 | 14.2
5 | AUUCCACUGGUCAUCGAGUGA [Fam2.1 aminoacylation ribozyme variant] | 28.1 | 3.72 | 7.09 | 5.86 | 3.82 | 6.67
6 | AUUCCCCAAGGUCAUCGGGUG [Fam2.2 aminoacylation ribozyme variant] | 218 | 15.9 | 20.9 | 27 | 14.8 | 31.1
7 | AUUCCCCCGGUCAUCGAGUGA [Fam2.1 aminoacylation ribozyme variant] | 59.9 | 4.4 | 10.7 | 8.57 | 4.37 | 8.86
8 | AUUCCCCUAGCUCAUCGGGUG [Fam2.2 aminoacylation ribozyme variant] | 35.1 | 6.15 | 5.96 | 5.75 | 6.05 | 6.66
9 | AUUCCCCUAGGUCAUCCGGUG [Fam2.2 aminoacylation ribozyme variant] | 295 | 27.6 | 39.5 | 38.5 | 26.9 | 51.5
10 | AUUCCCCUAGGUCAUCGGAUG [Fam2.2 aminoacylation ribozyme variant] | 2.14 | 3.04 | 4.36 | 2.88 | 3.49 | 3.28
11 | AUUCCCCUAGGUCAUCGGGUA [Fam2.2 aminoacylation ribozyme variant] | 58.9 | 7.47 | 10.2 | 7.28 | 7.57 | 8.16
12 | AUUCCCCUAGGUCAUCUGGUG [Fam2.2 aminoacylation ribozyme variant] | 107 | 10.6 | 15.3 | 14.7 | 9.58 | 18.8
13 | AUUCCCCUGCUCAUCGAGUGA [Fam2.1 aminoacylation ribozyme variant] | 2.12 | 1.54 | 1.06 | 1.53 | 1.51 | 1.89
14 | AUUCCCCUGGUCAGCGAGUGA [Fam2.1 aminoacylation ribozyme variant] | 39.5 | 3.66 | 8.52 | 5.69 | 4.24 | 7.02
15 | AUUCCCCUGGUCAUCCAGUGA [Fam2.1 aminoacylation ribozyme variant] | 98.5 | 6.96 | 14.3 | 11.6 | 6.74 | 13.2
16 | AUUCCCCUGGUCAUCGAAUGA [Fam2.1 aminoacylation ribozyme variant] | 2.91 | 2.24 | 2.15 | 2.45 | 1.96 | 2.09
17 | AUUCCCCUGGUCAUCGACUGA [Fam2.1 aminoacylation ribozyme variant] | 1.59 | 1.54 | 1.41 | 1.23 | 1.64 | 1.25
18 | AUUCCCCUGGUCAUCGUGUGA [Fam2.1 aminoacylation ribozyme variant] | 37.6 | 2.66 | 5.65 | 5.03 | 3.33 | 5.32
19 | AUUCCCCUGGUCCUCGAGUGA [Fam2.1 aminoacylation ribozyme variant] | 42.5 | 3.65 | 6.87 | 6.08 | 3.77 | 7.24
20 | AUUCCCCUGUUCAUCGAGUGA [Fam2.1 aminoacylation ribozyme variant] | 12.4 | 4.07 | 7.62 | 5.28 | 4.28 | 5.39
21 | AUUCCCGUAGGUCAUCGGGUG [Fam2.2 aminoacylation ribozyme variant] | 259 | 17 | 25.3 | 25.3 | 20.2 | 32.4
22 | AUUCCGCUAGGUCAUCGGGUG [Fam2.2 aminoacylation ribozyme variant] | 128 | 8.43 | 13.6 | 14 | 8.93 | 17.7
23 | AUUCGCCAAGGUCAUCGGGUG [Fam2.2 aminoacylation ribozyme variant] | 91.8 | 7.65 | 11 | 10.7 | 6.69 | 14.7
24 | AUUCGCCGAGGUCAUCGGGUG [Fam2.2 aminoacylation ribozyme variant] | 80.2 | 6.76 | 9.29 | 12.4 | 7.83 | 13.7
25 | AUUCGCCUAGGUCAUCGGGGG [Fam2.2 aminoacylation ribozyme variant] | 30 | 4.36 | 3.54 | 5.82 | 3.72 | 7.51
26 | AUUCGCCUAGGUCAUCGGGUC [Fam2.2 aminoacylation ribozyme variant] | 6.94 | 1.58 | 1.76 | 1.62 | 1.91 | 1.88

Row | Sequence | self-aminoacylation (biotinyl-Phe-oxazolone) | self-aminoacylation (biotinyl-Ile-oxazolone) | self-aminoacylation (biotinyl-Trp-oxazolone) | self-aminoacylation (biotinyl-Met-oxazolone) | self-aminoacylation (biotinyl-Val-oxazolone) | self-aminoacylation (biotinyl-Leu-oxazolone)
27 | AUUCGCCUAGGUCAUUGGGUG [Fam2.2 aminoacylation ribozyme variant] | 23.2 | 3.14 | 4.29 | 4.27 | 3.23 | 5.43
28 | AUUCGCCUAGGUGAUCGGGUG [Fam2.2 aminoacylation ribozyme variant] | 20.6 | 2.56 | 3.31 | 2.35 | 2.48 | 3.46
29 | AUUCGCCUAGGUUAUCGGGUG [Fam2.2 aminoacylation ribozyme variant] | 42.5 | 3.77 | 5.88 | 5.77 | 4.33 | 6.76
30 | AUUCGCCUAUGUCAUCGGGUG [Fam2.2 aminoacylation ribozyme variant] | 30.7 | 3.35 | 4.65 | 5.1 | 3.16 | 6.54
31 | AUUCGCCUCGGUCAUCGGGUG [Fam2.2 aminoacylation ribozyme variant] | 56.3 | 5.14 | 8.94 | 8.96 | 6.21 | 10.9
32 | AUUCUCAUAGGUCAUCGGGUG [Fam2.2 aminoacylation ribozyme variant] | 82.5 | 5.71 | 10.6 | 10.8 | 6.14 | 13.5
33 | AUUCUCCGAGGUCAUCGGGUG [Fam2.2 aminoacylation ribozyme variant] | 141 | 9.69 | 14.7 | 16.7 | 10.6 | 22
34 | AUUCUCCUAAGUCAUCGGGUG [Fam2.2 aminoacylation ribozyme variant] | 154 | 10.3 | 16 | 16 | 9.67 | 21.3
35 | AUUCUCCUAGGACAUCGGGUG [Fam2.2 aminoacylation ribozyme variant] | 27.8 | 2.81 | 3.73 | 4.55 | 3.62 | 5.06
36 | AUUCUCCUAGGUCAGCGGGUG [Fam2.2 aminoacylation ribozyme variant] | 43.1 | 4.22 | 8.04 | 6.21 | 3.99 | 8.81
37 | AUUCUCCUAGGUCAUCGGGAG [Fam2.2 aminoacylation ribozyme variant] | 5.17 | 1.49 | 1.71 | 1.81 | 1.33 | 1.77
38 | AUUCUCCUAGGUCAUGGGGUG [Fam2.2 aminoacylation ribozyme variant] | 78.8 | 5.81 | 8.92 | 9.56 | 5.64 | 12.5
39 | AUUCUCCUAGGUCAUUGGGUG [Fam2.2 aminoacylation ribozyme variant] | 44 | 3.96 | 6.02 | 5.76 | 3.87 | 7.5
40 | AUUCUCCUAGUUCAUCGGGUG [Fam2.2 aminoacylation ribozyme variant] | 32.7 | 3.84 | 5.28 | 4.59 | 3.46 | 5.88
41 | AUUCUCGUAGGUCAUCGGGUG [Fam2.2 aminoacylation ribozyme variant] | 77.6 | 6.47 | 9.21 | 11.3 | 7.51 | 12.2
42 | AUUGACCAAGGUCAUCGGGUG [Fam2.2 aminoacylation ribozyme variant] | 45.5 | 4.36 | 6.06 | 6.04 | 3.9 | 7.01
43 | AUUGACCUAGGCCAUCGGGUG [Fam2.2 aminoacylation ribozyme variant] | 39.3 | 3.65 | 6.22 | 4.78 | 4.27 | 5.7
44 | AUUGACCUAGGUCAUCGAGUG [Fam2.2 aminoacylation ribozyme variant] | 27.9 | 6.03 | 6.09 | 9.94 | 5 | 13.7
45 | AUUGACCUAGGUCAUCGCGUG [Fam2.2 aminoacylation ribozyme variant] | 25 | 3.24 | 5.47 | 4.19 | 3.69 | 5.69
46 | AUUGACCUAGGUCAUCGGCUG [Fam2.2 aminoacylation ribozyme variant] | 1.19 | 1.6 | 1.95 | 1.58 | 1.7 | 1.76
47 | AUUGACCUAGGUCAUCGGGUG [Fam2.2 aminoacylation ribozyme variant] | 337 | 20.6 | 31.1 | 43.8 | 17.4 | 58.8
48 | AUUGACCUAGGUCAUUGGGUG [Fam2.2 aminoacylation ribozyme variant] | 14.7 | 2.82 | 3.59 | 2.54 | 2.33 | 2.94
49 | AUUGACCUAGGUCCUCGGGUG [Fam2.2 aminoacylation ribozyme variant] | 29 | 4.32 | 5.43 | 4.64 | 3.24 | 5.76
50 | AUUGACCUUGGUCAUCGGGUG [Fam2.2 aminoacylation ribozyme variant] | 32.8 | 3.38 | 5.82 | 5.19 | 3.36 | 5.49
51 | AUUGACGUAGGUCAUCGGGUG [Fam2.2 aminoacylation ribozyme variant] | 30.5 | 2.26 | 4.06 | 4.18 | 3.22 | 3.27
